Results on six molecules are retold here after US20240156864A1 (UNIVERSITY OF NORTH CAROLINA AT CHAPEL HILL, published 2024).

To fix the notation:
B1: TRAF1 (other)
chain: MASSSGSSPRPAPDENEFPFGCPPTVCQDPKEPRALCCAGCLSENPRNGEDQICPKCRGEDLQSISPGSRLRTQEKAHPEVAEAGIGCPFAGVGCSFKGSPQSVQEHEVTSQTSHLNLLLGFMKQWKARLGCGLESGPMALEQNLSDLQLQAAVEVAGDLEVDCYRAPCSESQEELALQHFMKEKLLAELEGKLRVFENIVAVLNKEVEASHLALATSIHQSQLDRERILSLEQRVVELQQTLAQKDQALGKLEQSLRLMEEASFDGTFLWKITNVTRRCHESACGRTVSLFSPAFYTAKYGYKLCLRLYLNGDGTGKRTHLSLFIVIMRGEYDALLPWPFRNKVTFMLLDQNNREHAIDAFRPDLSSASFQRPQSETNVASGCPLFFPLSKLQSPKHAYVKDDTMFLKCIVETST
notes: Endogenous protein from T cell lysate
B2: CD8α (receptor)
chain: not shown
notes: Endogenous protein from T cell lysate; The CARs themselves carry a CD8α stalk; the text says that unique peptides outside the stalk were detected; also called CD8A; CD8 co-receptor
B3: PIK3CD (enzyme)
chain: MPPGVDCPMEFWTKEENQSVVVDFLLPTGVYLNFPVSRNANLSTIKQLLWHRAQYEPLFHMLSGPEAYVFTCINQTAEQQELEDEQRRLCDVQPFLPVLRLVAREGDRVKKLINSQISLLIGKGLHEFDSLCDPEVNDFRAKMCQFCEEAAARRQQLGWEAWLQYSFPLQLEPSAQTWGPGTLRLPNRALLVNVKFEGSEESFTFQVSTKDVPLALMACALRKKATVFRQPLVEQPEDYTLQVNGRHEYLYGSYPLCQFQYICSCLHSGLTPHLTMVHSSSILAMRDEQSNPAPQVQKPRAKPPPIPAKKPSSVSLWSLEQPFRIELIQGSKVNADERMKLVVQAGLFHGNEMLCKTVSSSEVSVCSEPVWKQRLEFDINICDLPRMARLCFALYAVIEKAKKARSTKKKSKKADCPIAWANLMLFDYKDQLKTGERCLYMWPSVPDEKGELLNPTGTVRSNPNTDSAAALLICLPEVAPHPVYYPALEKILELGRHSECVHVTEEEQLQLREILERRGSGELYEHEKDLVWKLRHEVQEHFPEALARLLLVTKWNKHEDVAQMLYLLCSWPELPVLSALELLDFSFPDCHVGSFAIKSLRKLTDDELFQYLLQLVQVLKYESYLDCELTKFLLDRALANRKIGHFLFWHLRSEMHVPSVALRFGLILEAYCRGSTHHMKVLMKQGEALSKLKALNDFVKLSSQKTPKPQTKELMHLCMRQEAYLEALSHLQSPLDPSTLLAEVCVEQCTFMDSKMKPLWIMYSNEEAGSGGSVGIIFKNGDDLRQDMLTLQMIQLMDVLWKQEGLDLRMTPYGCLPTGDRTGLIEVVLRSDTIANIQLNKSNMAATAAFNKDALLNWLKSKNPGEALDRAIEEFTLSCAGYCVATYVLGIGDRHSDNIMIRESGQLFHIDFGHFLGNFKTKFGINRERVPFILTYDFVHVIQQGKTNNSEKFERFRGYCERAYTILRRHGLLFLHLFALMRAAGLPELSCSKDIQYLKDSLALGKTEEEALKHFRVKFNEALRESWKTKVNWLAHNVSKDNRQ
notes: as for B1
B4: THEMIS (other)
chain: MALSLEEFVHSLDLRTLPRVLEIQAGIYLEGSIYEMFGNECCFSTGEVIKITGLKVKKIIAEICEQIEGCESLQPFELPMNFPGLFKIVADKTPYLTMEEITRTIHIGPSRLGHPCFYHQKDIKLENLIIKQGEQIMLNSVEEIDGEIMVSCAVARNHQTHSFNLPLSQEGEFYECEDERIYTLKEIVEWKIPKNRTRTVNLTDFSNKWDSTNPFPKDFYGTLILKPVYEIQGVMKFRKDIIRILPSLDVEVKDITDSYDANWFLQLLSTEDLFEMTSKEFPIVTEVIEAPEGNHLPQSILQPGKTIVIHKKYQASRILASEIRSNFPKRHFLIPTSYKGKFKRRPREFPTAYDLEIAKSEKEPLHVVATKAFHSPHDKLSSVSVGDQFLVHQSETTEVLCEGIKKVVNVLACEKILKKSYEAALLPLYMEGGFVEVIHDKKQYPISELCKQFRLPFNVKVSVRDLSIEEDVLAATPGLQLEEDITDSYLLISDFANPTECWEIPVGRLNMTVQLVSNFSRDAEPFLVRTLVEEITEEQYYMMRRYESSASHPPPRPPKHPSVEETKLTLLTLAEERTVDLPKSPKRHHVDITKKLHPNQAGLDSKVLIGSQNDLVDEEKERSNRGATAIAETFKNEKHQK
notes: Endogenous protein from T cell lysate (Co-IP-MS); also called endogenous THEMIS; TEHMIS [sic]
B5: CAR19.28ζ (receptor)
chain: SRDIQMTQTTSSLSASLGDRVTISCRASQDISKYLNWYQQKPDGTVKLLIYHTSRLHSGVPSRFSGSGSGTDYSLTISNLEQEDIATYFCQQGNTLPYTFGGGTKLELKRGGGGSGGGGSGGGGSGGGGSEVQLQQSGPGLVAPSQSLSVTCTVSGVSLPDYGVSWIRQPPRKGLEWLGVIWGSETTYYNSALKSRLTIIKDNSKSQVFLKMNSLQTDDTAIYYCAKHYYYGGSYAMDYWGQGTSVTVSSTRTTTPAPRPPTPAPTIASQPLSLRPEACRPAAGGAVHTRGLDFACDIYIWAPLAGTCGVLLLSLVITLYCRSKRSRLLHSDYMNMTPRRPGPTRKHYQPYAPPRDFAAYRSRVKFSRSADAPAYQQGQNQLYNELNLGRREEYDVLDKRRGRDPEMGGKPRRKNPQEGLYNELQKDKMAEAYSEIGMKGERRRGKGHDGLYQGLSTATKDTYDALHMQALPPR
notes: Expressed in human T cells and pulled down from lysate with the anti-CAR19 Ab; also called CAR.28ζ; CAR19.CD28ζ
B6: TRAF2 (other)
chain: AAASVTPPGSLELLQPGFSKTLLGTKLEAKYLCSACRNVLRRPFQAQCGHRYCSFCLASILSSGPQNCAACVHEGIYEEGISILESSSAFPDNAARREVESLPAVCPSDGCTWKGTLKEYESCHEGRCPLMLTECPACKGLVRLGEKERHLEHECPERSLSCRHCRAPCCGADVKAHHEVCPKFPLTCDGCGKKKIPREKFQDHVKTCGKCRVPCRFHAIGCLETVEGEKQQEHEVQWLREHLAMLLSSVLEAKPLLGDQSHAGSELLQRCESLEKKTATFENIVCVLNREVERVAMTAEACSRQHRLDQDKIEALSSKVQQLERSIGLKDLAMADLEQKVLEMEASTYDGVFIWKISDFARKRQEAVAGRIPAIFSPAFYTSRYGYKMCLRIYLNGDGTGRGTHLSLFFVVMKGPNDALLRWPFNQKVTLMLLDQNNREHVIDAFRPDVTSSSFQRPVNDMNIASGCPLFCPVSKMEAKNSYVRDDAIFIKAIVDLTGL
notes: as for B1

In test [1] the target is T1, CAR19.BBζ (human, UniProt P01732 138-206; Q07011 214-255; P20963 52-164).
T1 construct: Expressed in human T cells (or Jurkat cells) and pulled down from lysate; also called CAR.BBζ; CAR19.BBC
T1 sequence (P20963 other isoform, or with tags, fused parts or gaps): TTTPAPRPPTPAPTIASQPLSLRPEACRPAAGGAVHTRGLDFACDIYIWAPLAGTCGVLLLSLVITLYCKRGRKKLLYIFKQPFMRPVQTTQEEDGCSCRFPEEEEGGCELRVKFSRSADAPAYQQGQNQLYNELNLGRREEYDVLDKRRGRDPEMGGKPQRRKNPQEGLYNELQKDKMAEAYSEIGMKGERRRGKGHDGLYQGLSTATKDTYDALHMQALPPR
Nature of the test: co-IP with anti-CAR19 Ab from CAR-T cell lysate, LC-MS/MS. As to the method:
(§1) For Immunoprecipitation (IP), assay, proteins from T cells were extracted in RIPA lysis buffer (Thermo Scientific) supplemented with 1×protease/phosphatase Inhibitors (Thermo Scientific). Equal amount of total proteins was used for IP. Rabbit/mouse IgG (Thermo Scientific) with protein G magnetic beads (Bio-Rad) was used to pre-clear the lysate and anti-CAR19, anti-HA or anti-FLAG Abs were incubated with lysate for 16 hours, and protein G beads were then used for the pull-down. IP products were dissolved in 2× SDS Laemmli buffer for Western blot analysis. […] 2× SDS Laemmli buffer without β-mercaptoethanol was used to dissolve the IP product, and β-mercaptoethanol was supplemented before western blot.
For mass spectrometry (MS) assays, immunoprecipitated samples (3 biological replicates) were subjected to SDS-PAGE and stained with Coomassie blue dye. Lanes for each sample were excised and the proteins were reduced, alkylated, and in-gel digested with trypsin overnight at 37° C. Peptides were extracted, desalted with C18 spin columns (Pierce) and dried via vacuum centrifugation. Peptide samples were stored at −80° C. until further analysis. The peptide samples were analyzed by liquid chromatography coupled to tandem mass spectrometry (LC-MS/MS) in 3 separated experiments using a Thermo Easy nLC 1000 coupled to a QExactive HF or a Waters nanoAcquity coupled to a Thermo LTQ-Orbitrap Velos. Samples were injected onto a PepMap C18 column (75 μm id×25 cm, 2 μm particle size) (Thermo Scientific) and separated over a 90 or 120 min gradient where mobile phase A was 0.1% formic acid in water and mobile phase B consisted of 0.1% formic acid in ACN. The LTQ-Orbitrap Velos was operated in data-dependent mode where the 10 most abundant precursors were selected for CID fragmentation (35% CE). The QExactive HF was operated in data-dependent mode where the 15 most intense precursors were selected for subsequent HCD fragmentation (27 NCE).

Test [2] has as its target T2, CD4 co-receptor (human, UniProt P01730 26-458).
T2 construct: Endogenous protein from T cell lysate
Nature of the test: co-IP with anti-CAR19 Ab, LC-MS/MS.

The target in test [3] is B6. Nature of the test: co-IP with anti-CAR19 Ab, LC-MS/MS; 'Values not identified are denoted by -'. How it is done:
as §1
(§2) For mass spectrometry (MS) assays, immunoprecipitated samples (3 biological replicates) were subjected to SDS-PAGE and stained with Coomassie blue dye. Lanes for each sample were excised and the proteins were reduced, alkylated, and in-gel digested with trypsin overnight at 37° C. Peptides were extracted, desalted with C18 spin columns (Pierce) and dried via vacuum centrifugation. Peptide samples were stored at −80° C. until further analysis. The peptide samples were analyzed by liquid chromatography coupled to tandem mass spectrometry (LC-MS/MS) in 3 separated experiments using a Thermo Easy nLC 1000 coupled to a QExactive HF or a Waters nanoAcquity coupled to a Thermo LTQ-Orbitrap Velos. […]

Test [4] addresses B1. The test is described as above. As to the method:
as §1, §2

For B1, in test [1], the Area came out at 2.31e+08, the Coverage turned out to be 15% and the “Peptides (number identified)” value was 4.

As to B2, in test [1], the Area is 7.34e+08, the Coverage came out at 32% and the “Peptides (number identified)” value came to 6.

Turning to B3, in test [1], the Area was 5.1e+06, the Coverage was 2% and the “Peptides (number identified)” value came out at 2.

Regarding B4, in test [1], the Area came out at 3.78e+07, the Coverage is 4% and the “Peptides (number identified)” value turned out to be 2.

B5: the binding result in test [2], in test [3] and in test [4] was “no binding” each time.

On to B6, for which, in test [1], the Area came to 5.52e+07, the Coverage worked out at 14% and the “Peptides (number identified)” value was 6.
